Assay results from patent US20170319711A1 (Pfizer, published 2017).

T1: Human 5T4 antigen on cells (human, UniProt Q13641 32-420)
T1 construct: also called 5T4 oncofetal antigen
T1 sequence: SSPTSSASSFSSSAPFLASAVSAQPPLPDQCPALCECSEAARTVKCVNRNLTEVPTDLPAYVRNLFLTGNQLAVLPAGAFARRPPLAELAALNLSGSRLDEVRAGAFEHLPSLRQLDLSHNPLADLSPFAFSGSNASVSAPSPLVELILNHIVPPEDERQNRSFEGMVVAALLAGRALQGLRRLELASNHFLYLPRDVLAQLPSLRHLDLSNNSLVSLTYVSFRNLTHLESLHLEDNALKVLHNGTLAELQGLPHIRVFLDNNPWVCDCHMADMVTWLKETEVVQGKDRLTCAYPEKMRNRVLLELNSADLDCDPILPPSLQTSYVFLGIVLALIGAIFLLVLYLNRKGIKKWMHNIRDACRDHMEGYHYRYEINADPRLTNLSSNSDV

T2: human 5T4 ectodomain fused to the human IgG1-Fc domain (human, UniProt Q13641 32-355)
T2 construct: also called hu5T4; 5T4-Fc; not shown: Fc constant region from human IgG1
T2 sequence: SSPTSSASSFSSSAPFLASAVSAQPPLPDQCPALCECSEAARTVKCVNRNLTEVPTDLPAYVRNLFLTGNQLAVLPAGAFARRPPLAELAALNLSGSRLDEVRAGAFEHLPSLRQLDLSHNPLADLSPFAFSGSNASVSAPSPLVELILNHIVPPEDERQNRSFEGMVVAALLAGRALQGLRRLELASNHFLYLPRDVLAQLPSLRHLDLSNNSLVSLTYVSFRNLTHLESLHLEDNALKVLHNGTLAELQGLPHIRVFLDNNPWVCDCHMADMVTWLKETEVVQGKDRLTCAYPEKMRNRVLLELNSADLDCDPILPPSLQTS

T3: cynomolgus 5T4 ectodomain fused to the human IgG1-Fc domain (cynomolgus monkey; human, UniProt Q4R8Y9 35-355)
T3 construct: range 1-355; also called cyno5T4; not shown: Fc constant region from human IgG1
T3 sequence (looked up): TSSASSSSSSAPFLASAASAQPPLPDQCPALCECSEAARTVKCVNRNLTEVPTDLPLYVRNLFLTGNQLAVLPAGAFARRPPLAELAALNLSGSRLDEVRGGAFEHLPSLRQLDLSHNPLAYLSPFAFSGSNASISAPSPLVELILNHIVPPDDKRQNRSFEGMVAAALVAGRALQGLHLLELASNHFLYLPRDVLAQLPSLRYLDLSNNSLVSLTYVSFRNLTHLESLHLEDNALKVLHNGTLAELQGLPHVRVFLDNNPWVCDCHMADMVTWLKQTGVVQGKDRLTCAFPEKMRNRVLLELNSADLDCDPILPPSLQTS

T4: mouse 5T4 (mouse, UniProt Q9Z0L0 32-361, limits assumed)
T4 sequence (looked up): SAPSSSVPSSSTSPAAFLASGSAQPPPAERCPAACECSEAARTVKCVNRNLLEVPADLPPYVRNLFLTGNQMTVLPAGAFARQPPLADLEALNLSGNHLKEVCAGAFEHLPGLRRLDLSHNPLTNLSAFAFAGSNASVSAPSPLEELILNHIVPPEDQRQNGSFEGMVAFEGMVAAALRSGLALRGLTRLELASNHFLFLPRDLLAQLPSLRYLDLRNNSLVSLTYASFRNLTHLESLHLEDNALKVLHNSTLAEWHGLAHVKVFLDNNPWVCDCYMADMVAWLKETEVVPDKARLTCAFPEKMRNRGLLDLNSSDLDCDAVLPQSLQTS

B1: A1 (a humanized anti-5T4 IgG1 antibody) (antibody)
heavy: not shown
light: DIQMTQSPSSLSASVGDRVTITCKASQSVSNDVAWYQQKPGKAPKLLIYFATNRYTGVPSRFSGSGYGTDFTLTISSLQPEDFATYYCQQDYSSPWTFGQGTKVEIKRTVAAPSVFIFPPSDEQLKSGTASVVCLLNNFYPREAKVQWKVDNALQSGNSQESVTEQDSKDSTYSLSSTLTLSKADYEKHKVYACEVTHQGLSSPVTKSFNRGEC
notes: also called A1-IgG1; A1 antibody
B2: A1-IgG4 (a humanized anti-5T4 IgG4 antibody) (antibody)
heavy: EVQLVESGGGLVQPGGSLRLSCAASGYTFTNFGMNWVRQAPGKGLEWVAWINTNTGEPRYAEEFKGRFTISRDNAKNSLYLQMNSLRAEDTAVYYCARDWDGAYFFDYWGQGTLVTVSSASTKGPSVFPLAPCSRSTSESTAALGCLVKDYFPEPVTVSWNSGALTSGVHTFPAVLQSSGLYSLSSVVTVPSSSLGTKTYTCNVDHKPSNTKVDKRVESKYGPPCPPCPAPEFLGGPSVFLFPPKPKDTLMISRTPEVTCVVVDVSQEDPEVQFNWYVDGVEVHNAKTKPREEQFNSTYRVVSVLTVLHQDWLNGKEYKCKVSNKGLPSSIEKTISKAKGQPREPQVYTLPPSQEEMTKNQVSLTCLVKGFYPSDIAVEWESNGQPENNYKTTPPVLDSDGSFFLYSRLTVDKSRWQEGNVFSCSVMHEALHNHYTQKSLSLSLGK
light: B1 light
notes: Same variable domains as A1, human IgG4m heavy chain; also called A1-IgG4 Ab; Humanized A1 human IgG4m
B3: A3 (a mouse/human chimeric antibody) (antibody, human IgG1, kappa, V domains shown)
VH: EVQLVESGGGLVQPKGSLKLSCAASGFTFNTYAMNWVRQAPGKGLEWVARIRSKSNNYATYYADSVKDRFTISRDDSQSMLYLQMNNLKTEDTAMYYCVRQWDYDVRAMNYWGQGTLVTVSS
VL: DIVMTQSHIFMSTSVGDRVSITCKASQDVDTAVAWYQQKPGQSPKLLIYWASTRLTGVPDRFTGSGSGTDFTLTISNVQSEDLADYFCQQYSSYPYTFGQGTKLEIKR
notes: also called Chimeric A3; muA3-huIgG1

What was measured:
[1] = target: T1, Human 5T4 antigen on cells; assay: flow cytometry, 10 ug/mL, A431 cells
Experimental: (§1) Cells expressing the 5T4 antigen, and the negative control Raji cells, are plated at a density of 500,000 cells/well on non-tissue culture treated 96 well plates and kept on ice. Dilutions of the A1 and A1-IgG4 antibodies or A1-mcMMAF ADC are made in 3% bovine serum albumin BSA in Dulbecco's phosphate buffered saline (DPBS) and added to the plate at a final concentration of 10 μg/mL. The plates are then incubated on ice for 1 hour followed by 2 washes. The secondary antibody, PE (phycoerythrin) conjugated Goat Anti-Human IgG Fc is added to the wells. After 30 minutes of incubation at 4 C, the mean fluorescence intensity is then measured using a flow cytometer.

[2] = target: T2, human 5T4 ectodomain fused to the human …; assay: SPR (BIAcore), immobilized 5T4-Fc, pH 6.0
Experimental: (§2) Surface plasmon resonance (SPR) analysis is performed utilizing the BIAcore® to determine the affinity constants for A1-IgG1 and A1-IgG4 binding to either human or cynomolgus 5T4 at pH 6.0 and pH 7.4. BIAcore® technology utilizes changes in the refractive index at the surface layer upon binding of the huA1 antibody variants to the human 5T4 protein immobilized on the surface layer. Binding is detected by SPR of laser light refracting from the surface. Analysis of the signal kinetics on-rate and off-rate allows the discrimination between non-specific and specific interactions. The 5T4 proteins used for this analysis consisted of the human or cynomolgus 5T4 ectodomain fused to the human IgG1-Fc domain and low densities (45.1 and 45.4 RU for human and cynomolgus respectively) are immobilized onto a CM5 chip to accurately measure affinity constants.
(§3) The measurement of specific binding to the 5T4 ectodomain is attained by subtracting binding to a reference surface that had only human IgG1-Fc protein immobilized onto the CM5 chip at the same density to that on the 5T4-Fc surfaces. Next, various concentrations of A1, A1-IgG4, or A3 antibodies in either HBS-EP pH 7.4 or MES-EP pH 6.0 buffer are injected over the surface. The surface is regenerated two times with Glycine pH 1.7+0.05% Surfactant P20 (GE Healthcare, BR-1000-54) between injection cycles.

[3] = target: T3, cynomolgus 5T4 ectodomain fused to the …; assay: SPR (BIAcore), immobilized 5T4-Fc, pH 6.0
Experimental: as §2, §3

[4] = target: T2, human 5T4 ectodomain fused to the human …; assay: SPR (BIAcore), low-density 5T4-Fc surface, pH 7.4
Experimental: as §2, §3

[5] = target: T3, cynomolgus 5T4 ectodomain fused to the …; assay: SPR (BIAcore), low-density 5T4-Fc surface, pH 7.4
Experimental: as §2, §3

[6] = target: T2, human 5T4 ectodomain fused to the human …; assay: SPR (BIAcore), immobilized 5T4-Fc, pH 7.4
Experimental: as §2, §3

[7] = target: T3, cynomolgus 5T4 ectodomain fused to the …; assay: SPR (BIAcore), immobilized 5T4-Fc, pH 7.4
Experimental: as §2, §3

mouse 5T4 = target: T4, mouse 5T4; assay: ELISA (Example 7)
[8] = target: T1, Human 5T4 antigen on cells; assay: flow cytometry, 10 ug/mL, PC3mm2 cells
Experimental: as §1

[9] = target: T2, human 5T4 ectodomain fused to the human …; assay: SPR (BIAcore), low-density 5T4-Fc surface, pH 6.0
Experimental: as §2, §3

[10] = target: T3, cynomolgus 5T4 ectodomain fused to the …; assay: SPR (BIAcore), low-density 5T4-Fc surface, pH 6.0
Experimental: as §2, §3

[11] = target: T1, Human 5T4 antigen on cells; assay: flow cytometry, 10 ug/mL, MDAMB468 cells
Experimental: as §1

[12] = target: T1, Human 5T4 antigen on cells; assay: flow cytometry, 10 ug/mL, MDAMD361-DYT2 cells
Experimental: as §1

[13] = target: T2, human 5T4 ectodomain fused to the human …; assay: SPR (BIAcore), immobilized 5T4-Fc, pH 6.0; remark: listed apart in the source
Experimental: as §2, §3

[14] = target: T3, cynomolgus 5T4 ectodomain fused to the …; assay: SPR (BIAcore), immobilized 5T4-Fc, pH 6.0; remark: listed apart in the source
Experimental: as §2, §3

[15] = target: T2, human 5T4 ectodomain fused to the human …; assay: SPR (BIAcore), immobilized 5T4-Fc, pH 7.4; remark: listed apart in the source
Experimental: as §2, §3

[16] = target: T3, cynomolgus 5T4 ectodomain fused to the …; assay: SPR (BIAcore), immobilized 5T4-Fc, pH 7.4; remark: listed apart in the source
Experimental: as §2, §3

[17] = target: T3, cynomolgus 5T4 ectodomain fused to the …; assay: SPR (BIAcore), immobilized 5T4-Fc, pH not printed in this row (7.4 by the order of the table); row shifted one column to the left; pH 7.4 (pH cell missing; inferred from the order of the table)
Experimental: as §2, §3

[18] = target: T3, cynomolgus 5T4 ectodomain fused to the …; assay: SPR (BIAcore), immobilized 5T4-Fc, pH not printed in this row (7.4 by the order of the table); row shifted one column to the left; pH 7.4
Experimental: as §2, §3

| Binder | Mean Fluorescent Intensity [1] | Kd [2] [nM] | koff [2] [s⁻¹] | kon [2] [M⁻¹ s⁻¹] | Kd [3] [nM] | koff [3] [s⁻¹] | kon [3] [M⁻¹ s⁻¹] | Kd [6] [nM] | koff [6] [s⁻¹] | kon [6] [M⁻¹ s⁻¹] | binding result (mouse 5T4) | Mean Fluorescent Intensity [8] | Mean Fluorescent Intensity [11] | Mean Fluorescent Intensity [12] | Kd [13] [nM] | koff [13] [s⁻¹] | kon [13] [M⁻¹ s⁻¹] | Kd [14] [nM] | koff [14] [s⁻¹] | kon [14] [M⁻¹ s⁻¹] | also measured |
| --- | --- | --- | --- | --- | --- | --- | --- | --- | --- | --- | --- | --- | --- | --- | --- | --- | --- | --- | --- | --- | --- |
| B1 | 3900 | 1.06 | 0.000459 | 431000 | 2.76 | 0.000641 | 233000 | 0.48 | 0.000132 | 275000 | no binding | 3400 | 3500 | 7000 | 1.06 | 0.000459 | 431000 | 2.76 | 0.000641 | 233000 | fold higher affinity relative to A1-IgG4 [4]: 1.2 fold; fold better binding compared to A1-IgG4 [5]: 1.2 fold; Kd [7]: 1.8 nM; koff [7]: 0.000273 s⁻¹; kon [7]: 151000 M⁻¹ s⁻¹; fold higher affinity relative to A1-IgG4 [9]: 1.5 fold; fold better binding compared to A1-IgG4 [10]: 1.7 fold; Kd [15]: 0.48 nM; koff [15]: 0.000132 s⁻¹; kon [15]: 275000 M⁻¹ s⁻¹; Kd [16]: 1.8 nM; koff [16]: 0.000273 s⁻¹; kon [16]: 151000 M⁻¹ s⁻¹ |
| B2 | 2400 | 1.43 | 0.000893 | 626000 | 4.7 | 0.00095 | 202000 | – | – | – | – | 2100 | 2500 | 5500 | – | – | – | – | – | – | Kd [15]: 0.52 nM; koff [15]: 0.000172 s⁻¹; kon [15]: 328000 M⁻¹ s⁻¹; Kd [16]: 2.11 nM; koff [16]: 0.000382 s⁻¹; kon [16]: 181000 M⁻¹ s⁻¹ |
| B3 | – | – | – | – | – | – | – | 0.17 | 3.06e-05 | 179000 | no binding | – | – | – | 0.12 | 4.17e-05 | 351000 | 0.41 | 0.000187 | 458000 | kon [17]: 198000 M⁻¹ s⁻¹; Kd [18]: 0.82 nM; koff [18]: 0.000162 s⁻¹ |
